Experimental data as given in publication PMC5466808.
Where “and” joins values, the source holds several entries; their conditions need not be identical. Equal values may be shown once. Read-outs that look alike come from different tables or passages of the source.

Experiments:
[1] = biological target: full length human G208C NFU1 (human) (UniProt Q9UMS0); assay: AUC
[2] = biological target: full length human G208C NFU1 (human) (UniProt Q9UMS0); assay: AUC; remark: listed apart in the source

full length human G208C NFU1 (from UniProt Q9UMS0 10-254) (natural protein)
percent dimer (with 1 mM TCEP) [1]: 60% | percent dimer (without TCEP) [1]: 58% | percent higher order oligomer (with 1 mM TCEP) [1]: 1.5% | percent higher order oligomer (without TCEP) [1]: 6% | percent monomer (with 1 mM TCEP) [1]: 30% | percent monomer (without TCEP) [1]: 29% | stoichiometry N [1]: 2 | percent dimer (holo protein) [2]: 65.6% | stoichiometry N [2]: 2 and 4
